We go through 41 variants from the RNAGym collection of RNA variant scans (doi:10.7554/elife.90254).

Sequences and labels used below:
B1: OR4K15 (parent)
chain: GUUAACGGUCAUAGGCCAUGGAAACUAGGAGCACCAUUUCGCUGCCAGUGAAGAAAUGAACAAAGAAAAUCUGGGCCAGGCAGGCAUCAAAAGAAAUAGUCUUGCGCUCAACCAGAAAGUCUGUAAUCAUUUUAAGGGUA

In this series the parent is B1. Briefly: self-cleavage, relative activity (ratio to wild type); higher = more cleavage; in vitro, sequencing; the parent is a self-cleaving ribozyme.
As to GUUAACGGUCAUAGGCCAUGGAAACUAGGAGCACCAUUUCGCUGCCAGUGAAGAAAUGAACAAAGAAAAUCUGGCCCAGGCAGGCAUCAAAAGAAAUAGUCUUGCGCUCAGCCAGAAAGUCUGUAAUCAUUUUAAGGGUA [G75C A111G], the self-cleavage is 0.

On to GUUAACGGUCAUAGGCCAUGGAAACUAGGAGCACCAUUUCGCUGCCAGUGAAGAAAUGAACAAAGAAAAUCUGGGCUAGGCAGGCAUCAAAAGAAAUAGUCUUGCGCUCAACCAGGAAGUCUGUAAUCAUUUUAAGGGUA [C77U A116G], for which the self-cleavage was found to be 1.22.

Turning to GUUAACGGUCAUAGGCCAUGGAAACUAGGAGCACCAUUUCGCUGCCAGUGAAGAAAUGAACAAAGAAAAUCUGGGUCAGGCAGGCAUCAAAAGAAAUAGUCUUGCGCUCAACCAGAGAGUCUGUAAUCAUUUUAAGGGUA [C76U A117G], the self-cleavage came to 0.22.

As for GUUAACGGUCAUAGGCCAUGGAAACUAGGAGCACCAUUUCGCUGCCAGUGAAGAAAUGAACAAAGAAAAUCUGGACCAGGCAGGCAUCAAAAGAAAUAGUCUUGCGCACAACCAGAAAGUCUGUAAUCAUUUUAAGGGUA [G75A U108A], the self-cleavage was 0.01.

Consider GUUAACGGUCAUAGGCCAUGGAAACUAGGAGCACCAUUUCGCUGCCAGUGAAGAAAUGAACAAAGAAAAUCUGGCCCAGGCAGGCAUCAAAAGAAAUAGUCUUGCGCUCAACCAGAAAGUCUGUAAUCAUUUUAAGGGUG [G75C A140G], for which the self-cleavage turned out to be 0.15.

Take GUUAACGGUCAUAGGCCAUGGAAACUAGGAGCACCAUUUCGCUGCCAGUGAAGAAAUGAACAAAGAAAAUCUGGUCCAGGCAGGCACCAAAAGAAAUAGUCUUGCGCUCAACCAGAAAGUCUGUAAUCAUUUUAAGGGUA [G75U U87C]: the self-cleavage turned out to be 0.11.

On to GUUAACGGUCAUAGGCCAUGGAAACUAGGAGCACCAUUUCGCUGCCAGUGAAGAAAUGAACAAAGAAAAUCUGGACCAGGCAGGCAUCAAAAGAAAUAGUCUUGCGCUUAACCAGAAAGUCUGUAAUCAUUUUAAGGGUA [G75A C109U], for which the self-cleavage turned out to be 0.09.

Take GUUAACGGUCAUAGGCCAUGGAAACUAGGAGCACCAUUUCGCUGCCAGUGAAGAAAUGAACAAAGAAAAUCUGGACCAGGCAGGCAUCAAAAGAAAUAGCCUUGCGCUCAACCAGAAAGUCUGUAAUCAUUUUAAGGGUA [G75A U100C]: the self-cleavage stood at 0.12.

Consider GUUAACGGUCAUAGGCCAUGGAAACUAGGAGCACCAUUUCGCUGCCAGUGAAGAAAUGAACAAAGAAAAUCUGGUCCAGGCAGGCAUCAAAAGAAAUAGUCCUGCGCUCAACCAGAAAGUCUGUAAUCAUUUUAAGGGUA [G75U U102C], for which the self-cleavage came out at 0.12.

Consider GUUAACGGUCAUAGGCCAUGGAAACUAGGAGCACCAUUUCGCUGCCAGUGAAGAAAUGAACAAAGAAAAUCUGGACCAGGUAGGCAUCAAAAGAAAUAGUCUUGCGCUCAACCAGAAAGUCUGUAAUCAUUUUAAGGGUA [G75A C81U], for which the self-cleavage is 0.21.

With GUUAACGGUCAUAGGCCAUGGAAACUAGGAGCACCAUUUCGCUGCCAGUGAAGAAAUGAACAAAGAAAAUCUGGUCCAGGCAGGCAUCAAAAGAAAUAGUCUUGCGCUCAACCAGAAAGUCUGUAAUCAUUUUAGGGGUA [G75U A135G], the self-cleavage amounted to 0.16.

Regarding GUUAACGGUCAUAGGCCAUGGAAACUAGGAGCACCAUUUCGCUGCCAGUGAAGAAAUGAACAAAGAAAAUCUGGUCCAGGCAGGCAUCAUAAGAAAUAGUCUUGCGCUCAACCAGAAAGUCUGUAAUCAUUUUAAGGGUA [G75U A90U], the self-cleavage turned out to be 0.12.

On to GUUAACGGUCAUAGGCCAUGGAAACUAGGAGCACCAUUUCGCUGCCAGUGAAGAAAUGAACAAAGAAAAUCUGGGGCAGGCAGGCAUCAAAAGAAAUAGUCUUGCGCUCAACCAGAAAGUCCGUAAUCAUUUUAAGGGUA [C76G U122C], for which the self-cleavage worked out at 0.15.

For GUUAACGGUCAUAGGCCAUGGAAACUAGGAGCACCAUUUCGCUGCCAGUGAAGAAAUGAACAAAGAAAAUCUGGCCCAGGCAGGCAUCAAAAGAAAUAGUCUUGCGCUCAACCAGGAAGUCUGUAAUCAUUUUAAGGGUA [G75C A116G], the self-cleavage is 0.05.

In the case of GUUAACGGUCAUAGGCCAUGGAAACUAGGAGCACCAUUUCGCUGCCAGUGAAGAAAUGAACAAAGAAAAUCUGGGCAAGGCAGGCAUCAAAAGAAAUAGUCUUGCGCUCAACCAGAAAGUCCGUAAUCAUUUUAAGGGUA [C77A U122C], the self-cleavage amounted to 0.6.

With GUUAACGGUCAUAGGCCAUGGAAACUAGGAGCACCAUUUCGCUGCCAGUGAAGAAAUGAACAAAGAAAAUCUGGGUCAGGCAGGCAUCAAAAGAAAUAGUCUUGCGCCCAACCAGAAAGUCUGUAAUCAUUUUAAGGGUA [C76U U108C], the self-cleavage stood at 0.

With GUUAACGGUCAUAGGCCAUGGAAACUAGGAGCACCAUUUCGCUGCCAGUGAAGAAAUGAACAAAGAAAAUCUGGGGCAGGCAGGCAUCAAAAGAAAUAGUCUUGCGCUCAACCAGAAAGUUUGUAAUCAUUUUAAGGGUA [C76G C121U], the self-cleavage worked out at 0.08.

Regarding GUUAACGGUCAUAGGCCAUGGAAACUAGGAGCACCAUUUCGCUGCCAGUGAAGAAAUGAACAAAGAAAAUCUGGGCAAGGCAGGCAUCAAAAGAAAUAGUCUUGCGCUCAACCAGAAAGUCUGUAAUCAUCUUAAGGGUA [C77A U131C], the self-cleavage was 0.5.

On to GUUAACGGUCAUAGGCCAUGGAAACUAGGAGCACCAUUUCGCUGCCAGUGAAGAAAUGAACAAAGAAAAUCUGGGCAAGGCAGGCAUCAAAAGAAAUAGUCUUGCGCUCAACCGGAAAGUCUGUAAUCAUUUUAAGGGUA [C77A A114G], for which the self-cleavage amounted to 0.32.

Regarding GUUAACGGUCAUAGGCCAUGGAAACUAGGAGCACCAUUUCGCUGCCAGUGAAGAAAUGAACAAAGAAAAUCUGGGUCAGGCAGGCUUCAAAAGAAAUAGUCUUGCGCUCAACCAGAAAGUCUGUAAUCAUUUUAAGGGUA [C76U A86U], the self-cleavage was 0.08.

GUUAACGGUCAUAGGCCAUGGAAACUAGGAGCACCAUUUCGCUGCCAGUGAAGAAAUGAACAAAGAAAAUCUGGACCAGGCAGGCAUCAAAAGAAAUAGUCUUGCGCUCAACCAGAAAGUCUGUAAUCAUUUUGAGGGUA [G75A A134G]: the self-cleavage turned out to be 0.09.

Take GUUAACGGUCAUAGGCCAUGGAAACUAGGAGCACCAUUUCGCUGCCAGUGAAGAAAUGAACAAAGAAAAUCUGGGCUAGGCAGGCAUCAGAAGAAAUAGUCUUGCGCUCAACCAGAAAGUCUGUAAUCAUUUUAAGGGUA [C77U A90G]: the self-cleavage was found to be 2.13.

In the case of GUUAACGGUCAUAGGCCAUGGAAACUAGGAGCACCAUUUCGCUGCCAGUGAAGAAAUGAACAAAGAAAAUCUGGGUCAGGCAGGCAUCAAAAGAAAUAGUCUUGCGCUCAACCAGAAAGUCUAUAAUCAUUUUAAGGGUA [C76U G123A], the self-cleavage was 0.13.

Turning to GUUAACGGUCAUAGGCCAUGGAAACUAGGAGCACCAUUUCGCUGCCAGUGAAGAAAUGAACAAAGAAAAUCUGGGUCAGGCAGGCAUCAAAAGAAAUAGUCUUGCGCUCAACCAGAAAGUCUGAAAUCAUUUUAAGGGUA [C76U U124A], the self-cleavage worked out at 0.02.

With GUUAACGGUCAUAGGCCAUGGAAACUAGGAGCACCAUUUCGCUGCCAGUGAAGAAAUGAACAAAGAAAAUCUGGACCAGGCAGGCAUCAAAAGAAACAGUCUUGCGCUCAACCAGAAAGUCUGUAAUCAUUUUAAGGGUA [G75A U97C], the self-cleavage was determined as 0.15.

GUUAACGGUCAUAGGCCAUGGAAACUAGGAGCACCAUUUCGCUGCCAGUGAAGAAAUGAACAAAGAAAAUCUGGGCUAGGCAGGCAUCAAAAGAAAUAGUCUUGCGCUCAACCAGAAAGUCUGUAAUCGUUUUAAGGGUA [C77U A129G]: the self-cleavage was 1.77.

For GUUAACGGUCAUAGGCCAUGGAAACUAGGAGCACCAUUUCGCUGCCAGUGAAGAAAUGAACAAAGAAAAUCUGGGACAGGCAGGCAUCAAAAGAAAUAGUCUUGCGCUCAGCCAGAAAGUCUGUAAUCAUUUUAAGGGUA [C76A A111G], the self-cleavage is 0.02.

Regarding GUUAACGGUCAUAGGCCAUGGAAACUAGGAGCACCAUUUCGCUGCCAGUGAAGAAAUGAACAAAGAAAAUCUGGGUCAGGCAGGCAUCAAAAGAAAUAGUCCUGCGCUCAACCAGAAAGUCUGUAAUCAUUUUAAGGGUA [C76U U102C], the self-cleavage was 0.1.

Consider GUUAACGGUCAUAGGCCAUGGAAACUAGGAGCACCAUUUCGCUGCCAGUGAAGAAAUGAACAAAGAAAAUCUGGGACAGGCAGGCAUCAAAAGAAAUAGUCUUGCGCUCGACCAGAAAGUCUGUAAUCAUUUUAAGGGUA [C76A A110G], for which the self-cleavage worked out at 0.05.

Take GUUAACGGUCAUAGGCCAUGGAAACUAGGAGCACCAUUUCGCUGCCAGUGAAGAAAUGAACAAAGAAAAUCUGGGACAGGCAGGCAUCAAAAGAAAUAGUCUUACGCUCAACCAGAAAGUCUGUAAUCAUUUUAAGGGUA [C76A G104A]: the self-cleavage came out at 0.03.

As to GUUAACGGUCAUAGGCCAUGGAAACUAGGAGCACCAUUUCGCUGCCAGUGAAGAAAUGAACAAAGAAAAUCUGGGUCAGGCAGGCAUCAAAAGGAAUAGUCUUGCGCUCAACCAGAAAGUCUGUAAUCAUUUUAAGGGUA [C76U A94G], the self-cleavage is 0.13.

On to GUUAACGGUCAUAGGCCAUGGAAACUAGGAGCACCAUUUCGCUGCCAGUGAAGAAAUGAACAAAGAAAAUCUGGGUCAGGCAGGCAUCAAAAGAAAUAGUCUUGCGCUCAACCAGAAAGUCUGUAAUCAUUUUAAGGGUG [C76U A140G], for which the self-cleavage was 0.12.

For GUUAACGGUCAUAGGCCAUGGAAACUAGGAGCACCAUUUCGCUGCCAGUGAAGAAAUGAACAAAGAAAAUCUGGGCUAGACAGGCAUCAAAAGAAAUAGUCUUGCGCUCAACCAGAAAGUCUGUAAUCAUUUUAAGGGUA [C77U G80A], the self-cleavage came to 0.37.

GUUAACGGUCAUAGGCCAUGGAAACUAGGAGCACCAUUUCGCUGCCAGUGAAGAAAUGAACAAAGAAAAUCUGGGCUAGGCAGGCAUCUAAAGAAAUAGUCUUGCGCUCAACCAGAAAGUCUGUAAUCAUUUUAAGGGUA [C77U A89U]: the self-cleavage is 2.73.

Turning to GUUAACGGUCAUAGGCCAUGGAAACUAGGAGCACCAUUUCGCUGCCAGUGAAGAAAUGAACAAAGAAAAUCUGGGCUAGGCAGGCAUCAAAAGAAAUAGUCUUGCGCUCAACCAGAAAGUCUGUAGUCAUUUUAAGGGUA [C77U A126G], the self-cleavage stood at 1.49.

On to GUUAACGGUCAUAGGCCAUGGAAACUAGGAGCACCAUUUCGCUGCCAGUGAAGAAAUGAACAAAGAAAAUCUGGCCCAGGCAGGCAUCAAAAGAAAUAGUCUAGCGCUCAACCAGAAAGUCUGUAAUCAUUUUAAGGGUA [G75C U103A], for which the self-cleavage turned out to be 0.01.

Regarding GUUAACGGUCAUAGGCCAUGGAAACUAGGAGCACCAUUUCGCUGCCAGUGAAGAAAUGAACAAAGAAAAUCUGGGUCAGGCGGGCAUCAAAAGAAAUAGUCUUGCGCUCAACCAGAAAGUCUGUAAUCAUUUUAAGGGUA [C76U A82G], the self-cleavage was determined as 0.09.

Turning to GUUAACGGUCAUAGGCCAUGGAAACUAGGAGCACCAUUUCGCUGCCAGUGAAGAAAUGAACAAAGAAAAUCUGGGACAGGCAGGCAUCAAAAGGAAUAGUCUUGCGCUCAACCAGAAAGUCUGUAAUCAUUUUAAGGGUA [C76A A94G], the self-cleavage stood at 0.06.

For GUUAACGGUCAUAGGCCAUGGAAACUAGGAGCACCAUUUCGCUGCCAGUGAAGAAAUGAACAAAGAAAAUCUGGGCUAGGCAGGCAUCAAAAGAAAUAGUCUUGCGCUCAACCAGAAAGUCUGUGAUCAUUUUAAGGGUA [C77U A125G], the self-cleavage was 1.37.

For the variant GUUAACGGUCAUAGGCCAUGGAAACUAGGAGCACCAUUUCGCUGCCAGUGAAGAAAUGAACAAAGAAAAUCUGGGGCAGGCUGGCAUCAAAAGAAAUAGUCUUGCGCUCAACCAGAAAGUCUGUAAUCAUUUUAAGGGUA [C76G A82U], the self-cleavage was determined as 0.22.

Regarding GUUAACGGUCAUAGGCCAUGGAAACUAGGAGCACCAUUUCGCUGCCAGUGAAGAAAUGAACAAAGAAAAUCUGGACCAGGCAGGCAUCAAAAGAAAUAGUCUUGCGCUCAACCAGAGAGUCUGUAAUCAUUUUAAGGGUA [G75A A117G], the self-cleavage was 0.07.
